Experimental data as given in paper PMC5514376 (The Journal of investigative dermatology, 2016).

Target: the molecule itself
Assay: crystal structure

B1: keratin 1-keratin 10 helix 2B heterodimer (K1-K10-2B) (complex, human)
chain 1: ESLYQSKYEELQITAGRHGDSVRNSKIEISELNRVIQRLRSEIDNVKKQISNLQQSISDAEQRGENALKDAKNKLNDLEDALQQAKEDLARLLRDYQELMNTKLALDLEIATYRTLLEGE
chain 2: EAWFNEKSKELTTEIDNNIEQISSYKSEITELRRNVQALEIELQSQLALKQSLEASLAETEGRYCVQLSQIQAQISALEEQLQQIRAETECQNTEYQQLLDIKIRLENEIQTYRSLLEGE
**Q.** Does B1 bind?
**A.** binds
